Where “and” joins values, the source holds several entries; their conditions need not be identical. Equal values may be shown once.
What was measured:
[1] = target: S sensors L15 + S25: S(aa 328-533)-15aa-LgBiT and S(aa 328-533)-25aa-SmBiT (SARS-CoV-2)
[2] = target: N sensors LC + SC: N(aa 44-180)-10aa-LgBiT and N(aa 44-180)-10aa-SmBiT (SARS-CoV-2); experiment: spLUC, antibody dilution 100000
[3] = target: N sensors LC2 + SC2: N(aa 44-257)-LgBiT and N(aa 44-257)-SmBiT (SARS-CoV-2); experiment: spLUC, antibody dilution 100000
[4] = target: N sensors LN + SN: LgBiT-10aa-N(aa 44-257) and SmBiT-10aa-N(aa 44-257) (SARS-CoV-2); experiment: spLUC, antibody dilution 100000
[5] = target: N sensors LC + SC: N(aa 44-180)-10aa-LgBiT and N(aa 44-180)-10aa-SmBiT (SARS-CoV-2); experiment: spLUC, antibody dilution 10000
[6] = target: N sensors LC2 + SC2: N(aa 44-257)-LgBiT and N(aa 44-257)-SmBiT (SARS-CoV-2); experiment: spLUC, antibody dilution 10000
[7] = target: N sensors LC + SC: N(aa 44-180)-10aa-LgBiT and N(aa 44-180)-10aa-SmBiT (SARS-CoV-2); experiment: spLUC, antibody dilution 1000000
[8] = target: N sensors LC2 + SC2: N(aa 44-257)-LgBiT and N(aa 44-257)-SmBiT (SARS-CoV-2); experiment: spLUC, antibody dilution 1000000
[9] = target: N sensors LN + SN: LgBiT-10aa-N(aa 44-257) and SmBiT-10aa-N(aa 44-257) (SARS-CoV-2); experiment: spLUC, antibody dilution 1000000
[10] = target: N sensors LC + SC: N(aa 44-180)-10aa-LgBiT and N(aa 44-180)-10aa-SmBiT (SARS-CoV-2); experiment: spLUC, antibody dilution 100
[11] = target: N sensors LC2 + SC2: N(aa 44-257)-LgBiT and N(aa 44-257)-SmBiT (SARS-CoV-2); experiment: spLUC, antibody dilution 100
[12] = target: N sensors LN + SN: LgBiT-10aa-N(aa 44-257) and SmBiT-10aa-N(aa 44-257) (SARS-CoV-2); experiment: spLUC, antibody dilution 100
[13] = target: N sensors LC + SC: N(aa 44-180)-10aa-LgBiT and N(aa 44-180)-10aa-SmBiT (SARS-CoV-2); experiment: spLUC, antibody dilution 1000
[14] = target: N sensors LC2 + SC2: N(aa 44-257)-LgBiT and N(aa 44-257)-SmBiT (SARS-CoV-2); experiment: spLUC, antibody dilution 1000
[15] = target: N sensors LN + SN: LgBiT-10aa-N(aa 44-257) and SmBiT-10aa-N(aa 44-257) (SARS-CoV-2); experiment: spLUC, antibody dilution 1000

| Substance | percent of signal competed [1] [%] | luminescence signal [2] | luminescence signal [3] | luminescence signal [4] | luminescence signal [5] | luminescence signal [6] | luminescence signal [7] | luminescence signal [8] | luminescence signal [9] | luminescence signal [10] | luminescence signal [11] | luminescence signal [12] | luminescence signal [13] | luminescence signal [14] | luminescence signal [15] |
| --- | --- | --- | --- | --- | --- | --- | --- | --- | --- | --- | --- | --- | --- | --- | --- |
| C105 Fab | 90 | – | – | – | – | – | – | – | – | – | – | – | – | – | – |
| rabbit polyclonal anti-N protein antibody (Sino Biological, Cat#: 40588-T62-50) | – | 811 and 592 | 475 and 327 | 146 and 145 | 1030 and 694 | 563 and 505 | 598 and 600 | 332 and 281 | 138 and 104 | 10900 and 10200 | 9060 and 9420 | 1970 and 2200 | 4000 and 3560 | 2910 and 2790 | 677 and 684 |
